Measurements reported in US20100092505A1, “Method for Shielding Functional Sites or Epitopes on Proteins” (priority 2005, published 2010).
Where no end group is shown, it is not given here.

Experiments:
[1] = Isoelectric point (pI) of chimeric peptides and gp41 mimetics; assay type: physicochemical
[2] = disulfide-linked trimer; refers to U.S. Provisional Applications 60/576,062 and 60/636,724; cited from earlier work
[3] = system: guinea pigs; experiment: ELISA of sera from guinea pigs immunized under homologous and heterologous Prime/Boost regimens; assay type: in vivo; conditions: guinea pig serum; prime plus two boosts; PEGylated vaccine in both homologous and heterologous modality; QS21 adjuvant
Procedure: The Prime/Boost pair is shown below each group of bars. The ELISA geometric mean titers (GMT) against each antigen are a true reflection of the relative amount of antibodies with the corresponding specificity present in the serum.
Immunogenicity of the SMW-PEGylated vaccine—Animal studies were conducted in guinea pigs to compare the antibody response elicited by the non-PEGylated vaccine (CCIZN17)3 and the PEGylated vaccine (CCIPN17)3. The latter was used both in a homologous modality (i.e., using a priming injection with the antigen, followed by two boost injections with the same antigen) and a heterologous modality (i.e., using a priming injection with the non-PEGylated antigen (CCIZN17)3, followed by two boost injections with the PEGylated antigen (CCIPN17)3) (see FIG. 4). The PEGylated antigens were administered to the animals along with QS21 as an adjuvant (Antigenics; New York, N.Y.). Analysis of the immune response was performed by ELISA. To eliminate any bias due to differences in the absorption capacity of the antigens on the ELISA plate, all the capture antigens were biotinylated, and the ELISA plate was coated with streptavidin prior to the addition of the capture biotinylated molecules. […] This is identical in (CCIZN17)3 and (CCIPN17)3 and, accordingly, the measured GMT are identical when measured against either antigen.

[4] = system: patients; conditions: cited from earlier work

## (CCGGIEKKIEEIEKKIEEIEKKIEEIEKLLQLTVWGIKQLQARIL)3 [(CCEZN17)3]
[1]; Table 6, gp41 mimetics
  pI: 5.30

## (CCGGIKKEIEAIKKEQEAIKKKIEAIEKLLQLTVWGIKQLQARIL)3 (not fully specified (N-terminus, C-terminus, bridges); printed as (CCGGIKKEIEAIKKEQEAIKKKIEAIEKLLQLTVWGIKQLQARIL)3; also: disulfide-linked trimer) [(CCIZN17)3]
[2]
  stability relative to the non-covalent IZN17 trimeric coiled-coil: more stable than the original IZN17 trimeric coiled-coil
[3]
  antibody response against the scaffold moiety (ELISA GMT, capture antigens (Biotin-CCIZ)3 and (Biotin-CCIP)3): comparable amounts against the whole antigen and the scaffold moiety alone

## AN-1792: Elan/Wyeth Aβ 1-42 peptide vaccine for Alzheimer disease, clinical trial discontinued
[4]; patients with high titers of Aβ antibodies
  therapeutic effect in the clinical trial: reduction of plaque and some limited stabilization of memory
[4]; patients, attributed to a T-cell response to the COOH-terminal region of Aβ
  adverse effect that led to discontinuation of the clinical trial: severe brain inflammation problems
[4]; vaccinated patients
  induction of antibodies specific for the pathological form of Aβ: induced in the majority of patients

## IEKKIEEIEKKIEEIEKKIEEIEKLLQLTVWGIKQLQARIL [EZN17]
[1]; chimeric N-peptide
  pI: 5.2

## IKKEIEAIKKEQEAIKKKIEAIEKLLQLTVWGIKQLQARIL [IZN17]
[1]; chimeric N-peptide
  pI: 10.7
